Square brackets hold non-standard residues; d marks the D form. Ends that are not written are not given here. * marks the point of attachment. 2‑Mba = 2-mercaptobenzoic acid, O=C(c1ccccc1S)*; Cha = N[C@@H](CC1CCCCC1)C(=O)O; Mpa = O=C(O)CCS
T1: human thrombin receptor (human, UniProt P25116 42-425)
T1 chain: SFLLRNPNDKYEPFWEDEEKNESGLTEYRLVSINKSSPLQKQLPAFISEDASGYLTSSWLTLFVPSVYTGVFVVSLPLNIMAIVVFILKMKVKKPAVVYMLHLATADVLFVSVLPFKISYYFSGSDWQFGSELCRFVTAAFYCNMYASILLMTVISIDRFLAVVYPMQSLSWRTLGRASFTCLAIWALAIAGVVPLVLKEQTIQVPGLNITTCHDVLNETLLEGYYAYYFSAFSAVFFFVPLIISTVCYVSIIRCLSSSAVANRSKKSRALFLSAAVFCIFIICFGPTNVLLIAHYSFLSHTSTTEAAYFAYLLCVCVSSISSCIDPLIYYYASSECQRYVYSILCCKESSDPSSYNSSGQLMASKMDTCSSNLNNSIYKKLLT

T2: mutant thrombin receptor with the amino acid substitution R41A (human, UniProt P25116 22-425, limits assumed)
T2 chain: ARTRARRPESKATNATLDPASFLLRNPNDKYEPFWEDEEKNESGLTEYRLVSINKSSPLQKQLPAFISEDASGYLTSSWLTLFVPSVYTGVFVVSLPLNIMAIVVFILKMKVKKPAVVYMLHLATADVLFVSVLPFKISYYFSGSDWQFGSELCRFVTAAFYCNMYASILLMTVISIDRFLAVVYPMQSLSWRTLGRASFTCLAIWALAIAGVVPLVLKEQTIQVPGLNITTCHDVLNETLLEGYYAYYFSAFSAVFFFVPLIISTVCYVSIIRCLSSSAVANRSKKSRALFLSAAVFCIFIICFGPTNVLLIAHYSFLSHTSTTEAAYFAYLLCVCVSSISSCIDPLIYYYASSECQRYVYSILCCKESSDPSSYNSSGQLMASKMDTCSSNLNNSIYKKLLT


Columns and labels:
Test in all cases: cell-based or functional assay
thrombin = thrombin (UniProt P00734 364-622; P00734 328-363)
human thrombin receptor [1] = biological target: T1, human thrombin receptor
human thrombin receptor [2] = biological target: T1, human thrombin receptor
[3] = biological target: T2, mutant thrombin receptor with the amino …

Row | IC50, inhibition of thrombin-induced platelet ATP secretion (peptide preincubated with thrombin) (thrombin) [µM] | IC50 (50% inhibition of thrombin-induced platelet activation or aggregation) (human thrombin receptor [1]) [µM] | Binder | also measured
1 | – | 108 | [Mpa]FLLRNPNDKYE-NH2 (SMILES CC(C)C[C@H](NC(=O)[C@H](Cc1ccccc1)NC(=O)CCS)C(=O)N[C@@H](CC(C)C)C(=O)N[C@@H](CCCNC(=N)N)C(=O)N[C@@H](CC(N)=O)C(=O)N1CCC[C@H]1C(=O)N[C@@H](CC(N)=O)C(=O)N[C@@H](CC(=O)O)C(=O)N[C@@H](CCCCN)C(=O)N[C@@H](Cc1ccc(O)cc1)C(=O)N[C@@H](CCC(=O)O)C(N)=O) [Mpr-FLLRNPNDKYE-NH2] | –
2 | – | 80 | [Mpa]FLLRNPNDK [Mpr-FLLRNPNDK] | –

More lines, now with the values behind:

Row | Binder | IC50, inhibition of thrombin-induced platelet ATP secretion (peptide preincubated with thrombin) (thrombin) [µM] | IC50 (50% inhibition of thrombin-induced platelet activation or aggregation) (human thrombin receptor [1]) [µM] | also measured
3 | LDPRPFLL | ~200 | – | –
4 | LDPRPFLLRNPNDKYEPFWEDEEKNES | ~0.5 | – | –
5 | SFLLRNPNDKYEPF ["new amino-terminal" peptide SFLLRNPNDKYEPF] | – | – | Fold increase in 45Ca (release by oocytes expressing receptor cRNA); “SFLL” peptide 40 µM (human thrombin receptor [2]): 32 fold; Fold increase in 45Ca (release by oocytes expressing receptor cRNA); “SFLL” peptide 200 µM (human thrombin receptor [2]): 42 fold; Fold increase in 45Ca (release by oocytes expressing receptor cRNA); “SFLL” peptide 200 µM [3]: 53 fold
6 | {2‑Mba}-F[Cha][Cha]RKPNDK-NH2 (SMILES N=C(N)NCCC[C@H](NC(=O)[C@H](CC1CCCCC1)NC(=O)[C@H](CC1CCCCC1)NC(=O)[C@H](Cc1ccccc1)NC(=O)c1ccccc1S)C(=O)N[C@@H](CCCCN)C(=O)N1CCC[C@H]1C(=O)N[C@@H](CC(N)=O)C(=O)N[C@@H](CC(=O)O)C(=O)N[C@@H](CCCCN)C(N)=O) [(2-Mba)-F(Cha)(Cha)RKPNDK-NH2] | – | 50 | –

Reference: patent publication US7119182 (University of California, dated 2006)
